Data on 55 sequences can be found in the supplement of paper PMC12636428.

The series deals with Saccharomyces cerevisiae. The series is described as follows: transcriptional activation domain activity (GFP:mCherry ratio, weighted mean of sorted bins, harmonized to initial dataset scale) (arbitrary fluorescence ratio units); higher = stronger transcriptional activation. As to conditions: beta-estradiol 1 µM; induction time 4 h. The method in brief: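 The listed activation activity is a read-weighted mean of bin median fluorescence, averaged across barcodes and linearly mapped onto the initial dataset scale. Barcoded tiles, fused to an estradiol-inducible synthetic transcription factor, were integrated at URA3 in yeast diploids bearing a GFP reporter. Cells were held 4 hours at 30 °C in SC with 1 uM beta-estradiol, sorted into 8 GFP:mCherry bins, and sequenced, and tiles with fewer than 50 reads were excluded.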

On to “LFLLFTFPLLGIFDTCFLTSMLFMALCFLFILLLETSFFFFFSLHPNFISWPY”, for which the “transcriptional activation domain activity” value came out at 62600.

In the case of “LFLLLMFQGLDIFTPGIRVLHFRICLLLLLLIILLAVPLLFSYIHLTAFTIFY”, the “transcriptional activation domain activity” value stood at 59100. Consider “LFLMVAPYPSLLIVLVNHYLRTLDKPIAFVIHFLVIFTLKFLAFISLIVCVAR”, for which the “transcriptional activation domain activity” value worked out at 75600. Consider “LFLMVWYLLMFSFDKKAIEHAWGLMGLLSKLAQSLSLRKFVHSEILAHHLIGS”, for which the “transcriptional activation domain activity” value amounted to 80300. The value for “LFLSLSSACPSFFPLLPFPFLLAFLITFLAPFPSFLSLLVPHSVPIPLSLPTS” was 49800; that for “LFPFLFFFFFFLFFSFFLSFFPSSCFLLFSPFFSLVFPFFSLVFFSSFLFFSF” was 26800. On to “LFRDDEFWGIFASDVGLLVMMGWYGFKTLLWTYILPLMWVNHWIVMITYLHHT”, for which the “transcriptional activation domain activity” value turned out to be 55100. For the sequence “LFSCCCLLRTLGRFLLFIIFFPSLSTCSFFYFLVLFLFSFQTYFLLYLYLLSI”, the “transcriptional activation domain activity” value was determined as 43800. “LFSDTSFTIVFSNNVSFTYISFDKKVFFCIFFFLLVYFCQTFSFFLLFFLFFL”: the “transcriptional activation domain activity” value came out at 44400.

As for “LFSFLFPLLLFFSHSFFFYPFLCPLLLPPSLSFYLPLSLSSLSPIPCICFFSD”, the “transcriptional activation domain activity” value came out at 63200.

“LFSFSVAYRYFYFFWYVVLERQIRIFRWIAVSIFVWTLVIGFSLYQGLTKQYI”: the “transcriptional activation domain activity” value worked out at 31800. Then “LFSLCFSEICTLFLLLMCQGIDLLDPGVRLINWKVSLWLLLATILVFIPLSYS”, with 43900; and “LFSPFPPSISFPLSSHSSLPPLFPPLFPPLFPPFLPSLCFPLFPSLPFPPLPL”, with 19500; and “LFSQLFFPREQAKGVLGWLVWILYMLEKVLFSFSKRRGFFIVCQLEFCVLILT”, with 40300.

For the sequence “LFTFRLLRICGPFVARLPSAERLLGWSTLASILGLWWNPRFAQVFRGFTRHIS”, the “transcriptional activation domain activity” value was 61800. For “LFTHLCLNPQLLRSISSVIFLPRITAPIHVYLYSILIYLQFKMLLLYTLFHIM”, the “transcriptional activation domain activity” value worked out at 77200. Then “LFTSIYYIIILSRSCLFFLFSLPLFQDALFLFVDSVQLYMWGILLFILSSLFF”, with 42900; and “LFTSLLTSPFLFSLPLLSISASSFLIPPSPFHSLFLPLSLPFPLLYPFPSLFF”, with 49800; and “LFVFLLFVLFLLVLFMLVLLLLFLPLLLLLPLLLWILWILILRLFFSFLDISD”, with 36900. The value for “LFYFIFILFFFTLGDICFRFFYFMGPCFVLFKMVLLIFFSPFSFLHLSLSWVT” was 43100; that for “LFYFTFSFFVRTAFITLPIYLFWFLYSYFWNYWTSYFPWNDLFLPAWPISRTR” was 39300.

On to “LFYLLLLYYYYYCTILYILLHIHYIYIIYLFFLFVYSIYLFFFYILLFIIYYS”, for which the “transcriptional activation domain activity” value came to 52300. The value for “LFYNQVSKLLIINCYEASYMCVIYTVGSIGNIGSRCQNLRTGSTFKTLVKYID” was 54000; that for “LGAIIYIYLCCHGSLTMVDLCTLLALNILNNVDGQCTRILCWWVSFAWCMYPG” was 58800; that for “LGDQPHIPIPVAFRNIWSFLRVCTLEGFDAKEILPILFALSPGAQLRFIRCRS” was 70800. The value for “LGFIEIVRVCPRFGILFLCMALSFISIVVDLLSVTPVIPIGVINPFWKFAFVF” was 58100; that for “LGFLYDLIPFFFCCLPFLPFLAPPLKKHLALFQFHPLLHLPLLLPFFFLYFRP” was 50200; that for “LGGLSRERFFVYVFTSAFLWYFFPGYLFLALSWFSWVTWIWPDDPVVSQLFGY” was 39500. Then “LGGNSGRATPGGGESRASTRKSKSKGAAKSRSRSPSRGRNRAGSKKKAGAAAT”, with 38700.

Turning to “LGILLLLFDWRVLFNAAQMSCALHESCIALSVMKARNQEWKWWCLGSTYYVYE”, the “transcriptional activation domain activity” value was 44100.

In the case of “LGIRSILETAYRINRLTHMCLQHLLTRCNNLEPLELVGSVLFFLDKKLKRPPE”, the “transcriptional activation domain activity” value is 50300. Consider “LGLDSGYLWSGILYNLSVTISLYSLGMFWVCMSKDLQPFRPVPKFLCIKLIIF”, for which the “transcriptional activation domain activity” value stood at 53200.

For the sequence “LGLDSGYLWSGILYNVSVTVSLYSLGMFWVCMSKDLQPFRPVPKFLCIKLIIF”, the “transcriptional activation domain activity” value came to 62400. Then “LGLLLVVSVRIVVTLFSLFFFILLLVALGLIILIIALIVKAIIIVVYFFFFFV”, with 20400; and “LGLSIWTPWKDVYTRLPKRIYAKLLATAEMEVKYKPKVLVSQIWNAVIISMYR”, with 61600; and “LGLTNLQLGDEMIGLGAVILIYVIARLILILLPLVALRSLPSGVFVDVNWSRY”, with 57800.

Take “LGNISAERHVLNTLSKIPAAQLHDALLVLPFSSLPALFTFLAIWVRKQWNVTL”: the “transcriptional activation domain activity” value is 56000. In the case of “LGQLLLLLLLLLLLLLLLLLLLLLLLLLLLLLLRRRRRRWWWWRRLLILRIRR”, the “transcriptional activation domain activity” value stood at 73200. Regarding “LGSCFLLSLVHPFFLLYYLYLRLLSLCFLYLRFVFFFCSPMSFFILLSIMSFL”, the “transcriptional activation domain activity” value amounted to 60100. For the sequence “LGSIWKPLRNDLLFGTCFFLTRILYHNIMIFTFYYHLDFMFPVYTLLFILPLH”, the “transcriptional activation domain activity” value stood at 61100. On to “LGSLTFLDNAFQLDLEFLLSSNMTMPSPLDTCFDFLFPFTQMPSLEPCTFPPV”, for which the “transcriptional activation domain activity” value is 138000. “LGTEVVTLEDEIYYIWVRYYSIALLVFDTPNSHLCHSRNNLGQLVAVINVFLF”: the “transcriptional activation domain activity” value stood at 46300. For the sequence “LGTTLLIVVKMLLNWETIDCWGLIYKKMVIGQFMSEMYRIAAGGGKRRVPWAK”, the “transcriptional activation domain activity” value is 60800. Consider “LGVFGVALYVLSFFENFDSCHWCFHYDLWSPMAYILMRYSIEAILWSSRLALF”, for which the “transcriptional activation domain activity” value worked out at 70600. Then “LGVLLLLLLYANVVLLIYHAPTTRKPFDLAFIHAPVRAFMLLPLTILFPYSLF”, with 57300. For “LGVSAGAGLYPLQDKKREEEEDGVRGFVREGLGDLSCFIGSSVPLTAKKVLEA”, the “transcriptional activation domain activity” value amounted to 75700.

In the case of “LGVVFWCWCGLLGLKIQLYAGSYIKFRSVVIVMLIVLEIFEISINVSVCVIFH”, the “transcriptional activation domain activity” value is 53000.

For the sequence “LGYQIVLLLPWTLFCYCWTLCVVIFSLVAMIIPPLGYVCTIFSVTSWRALARV”, the “transcriptional activation domain activity” value is 69800. Take “LHAGAAADDARTGGGGGGGTGQGRAEGRDRGAEPGAVRGGEPHGRGRAEAGAH”: the “transcriptional activation domain activity” value was determined as 8730. Take “LHEQLESLMLRRLKRDVLTSLPTKSERILRVEMSALQTHFYKNILTKNFQALV”: the “transcriptional activation domain activity” value came out at 74100.

Consider “LHFCHRLLSRISSLLFCFLFYCLDVLFLSLFLLCFFFPFFFFLFFLFLFQHFA”, for which the “transcriptional activation domain activity” value is 54800. As for “LHFFLAFIFLLSAYFHVRGRDLTYYGVWPSMVVWGLDRFLRLLRIGVFNFRYI”, the “transcriptional activation domain activity” value was determined as 42000. The value for “LHFLSIDITSPFLPLDILPDLWATMWPWIRLIDSYWDSLPTLHEWFPSIQIYT” was 57500; that for “LHFMYVVAIKDRKAWVGYSAAELCMVGFWNLIVVWLKLLVPWRFFRLWALADG” was 61900. Take “LHGFDWSEEDDMSDGLPFLKTDPNNNGFFGDGSLLCILRSIGFKPENYTNSNV”: the “transcriptional activation domain activity” value came out at 50300.
